One data set relates to PKC. The data set is described as follows: Effect of BVR and peptides on PKC activity (MBP substrate, kinetic analysis). Format: biochemical. The following applies: for Vmax of the PKC reaction with respect to ATP / Vmax of the PKC reaction with respect to MBP: in the presence of 50 μM BVR or peptide; for Km for the substrate (MBP) of the PKC reaction: in the presence of 50 μM peptide; for nature of kinetics with respect to substrate concentration: MBP varied. On the procedure: FIGS. 11A-C are graphs depicting the role of BVR in increasing protein kinase C activity. FIG. 11A depicts the dose-dependence of PKC activity in the presence of BVR or PKC inhibitor peptide (“PKCI”) in an assay system containing 0.5 μg/ml PKC, 50 μM unlabeled ATP, 5 μCi[^32γP]-ATP and 1 mg/ml MBP and carried out as described infra. FIGS. 11B-C are the kinetic analyses of PKC activity carried out with respect to MBP (FIG. 11B) and with respect to ATP (FIG. 11C) in the presence or absence of 50 μM BVR.
FIGS. 12A-C are graphs illustrating the effect of various rBVR fragments on PKC activity. Protein kinase C was incubated at 30° C. with buffer or with the indicated peptides (50 μM) for 15 min prior to addition to a kinase assay using MBP as substrate. FIG. 12A depicts the relative activity for each sample normalizing to that of the PKC and buffer control value. FIGS. 12B-C are the kinetic analyses of PKC with respect to substrate MBP (FIG. 12B) and ATP (FIG. 12C) in the presence or absence of BVR peptide fragments (50 μM). BVR1 peptide corresponds to SEQ. ID. No. 34 and BVR2 peptide corresponds to SEQ. ID. No. 19.
Incubation time was 8 min at 30° C.

Data set [1] can be described thus: Biliverdin reductase activity of E. coli expressed hBVR wild type and mutants (Example 1). The following applies: for Activity (nmol bilirubin/min/mg) pH 6.7 + NADH: pH 6.7, NADH cofactor; for Activity (nmol bilirubin/min/mg) pH 6.7 + NADH / Activity (nmol bilirubin/min/mg) pH 8.7 + NADPH: 25°; for Activity (nmol bilirubin/min/mg) pH 8.7 + NADPH: pH 8.7, NADPH cofactor; for Activity % pH 6.7 + NADH / Activity % pH 8.7 + NADPH: Cys→Ala mutations; for Activity % pH 6.7 + NADH: wild type = 100, pH 6.7, NADH; for Activity % pH 8.7 + NADPH: wild type = 100, pH 8.7, NADPH. Type of data set: biochemical, human. Here is the method:
SalI linkers are underlined in each primer. The products were digested with SalI and cloned into the vector pGEX 4T-2. Orientation was determined by restriction analysis and confirmed by sequencing. The ligation places the BVR coding region in frame with the GST protein of the vector. GST-BVR fusion proteins were purified from bacterial clones containing the plasmid, and grown overnight using a glutathione-sepharose 4B column (Pharmacia). The reductase portion of the fusion protein was released by thrombin protease treatment.
Activity was determined as previously described (Kutty et al., J. Biol. Chem. 256:3956-3962 (1981); Huang et al., J. Biol. Chem. 264:7844-7849 (1989), which are hereby incorporated by reference). Activity was determined in a 1 ml assay volume that contained 0.1 M Tris/HCl, pH 8.7 NADPH (100 μM), and biliverdin (5 μM). Reductase activity was also measured using NADH (1 mM) as the cofactor; in this case 0.1 M potassium phosphate pH 6.75, was substituted for Tris/HCl. SDS/PAGE was performed by the method of Laemmli, Nature 227:680-685 (1970), which is hereby incorporated by reference. Western blot analysis was performed using anti-serum to human kidney biliverdin reductase as previously described (Maines et al., Arch. Biochem. Biophys. 300:320-326 (1993), which is hereby incorporated by reference). The relative amounts of immunoreactive protein were determined by scanning the blot using a laser densitometer and comparing the area under the peak for each mutant with the wild type. The rate of activity was measured as the increase in 450 nm absorbance at 25° C. Specific activity is expressed as nmol bilirubin/min/ mg protein.

In data set [2] the target is protein kinase C (a mixture containing equal amounts of isozymes α, β and γ) (Promega). The data set is described as follows: cell-based or functional assay.
A short description of data set [3]: Biliverdin reductase catalytic activity of recombinant wild type and mutant hBVR (Example 2, FIG. 3). To be noted: pH/cofactor not stated. Format: biochemical, human. On the procedure: FIGS. 3A-C are graphs depicting the effects of mutation of Gly^17, Ser^149, and Lys^296 on BVR catalytic activity. Purified preparations of recombinant wild type and mutant BVR with substitution of Gly^17 (FIG. 3A), Ser^149 (FIG. 3B), or Lys^296 (FIG. 3C) with Ala were assessed for BVR activity at pH 6.5 using NADH as cofactor and at pH 8.7 with NADPH as cofactor. Values presented are in percent wild type activity for each pH. The specific activity of the wild type preparation was 1744 nmol bilirubin produced min^−1 mg^−1 at pH 6.5 and 1147 nmol bilirubin produced min^−1 mg^−1 at pH 8.7. Values presented are representative of 2-4 determinations.
GST-BVR fusion proteins were prepared as described in Example 1. Human kidney biliverdin reductase was purified to homogeneity as described by Maines et al., Arch. Biochem. Biophys. 300:320-326 (1993), which is hereby incorporated by reference. The purified reductase preparations were judged to be homogenous by SDS-PAGE. Protein concentration was determined by the method of Bradford, Anal. Biochem. 72:248-254 (1976), which is hereby incorporated by reference.
Activity was determined as previously described by Huang et al., J. Biol. Chem. 264:7844-7849 (1989), which is hereby incorporated by reference, using NADPH as the cofactor at pH 8.7 in 0.1 M […] or NADH at pH 6.5 in […]. The rate of activity was measured as the increase in 450 nm absorbance at 25° C. Specific activity is expressed in units/mg protein, where 1 unit catalyzes the formation of 1 nmol bilirubin/min.

Take KKRIMHC [peptide 1, ID; No. 18]: in the data set with PKC, the “Vmax of the PKC reaction with respect to ATP” value was 4.2 pmol/min, the “Vmax of the PKC reaction with respect to MBP” value was determined as 2.92 pmol/min and the “Km for the substrate (MBP) of the PKC reaction” value was determined as 0.39 mg/mL. Besides, the “effect on PKC activity” value in the data set with PKC (peptide 50 μM, MBP substrate) is recorded as “stimulated PKC activity”. In addition, in the data set with PKC (peptide 50 μM), the “nature of kinetics with respect to substrate concentration” value is given as “mixed kinetics”.
Consider “RKRCLRRL [PKCI peptide, ID; No. 29, reference compound]”, for which the “dose dependence of PKC activity (^32P into MBP)” value in the data set on PKC (PKC preincubated 15 min at 30° C., MBP substrate) was “dose-dependent inhibition of activity”. Further, the “inhibition of PKC activity” value in the data set on PKC (peptide 50 μM, MBP substrate) is reported as 90%.
Consider QKLCHQKK [peptide 2, ID; No. 19], for which, in the data set with PKC, the “Vmax of the PKC reaction with respect to ATP” value came to 3.12 pmol/min, the “Vmax of the PKC reaction with respect to MBP” value worked out at 1.82 pmol/min and the “Km for the substrate (MBP) of the PKC reaction” value stood at 0.12 mg/mL. In the data set on PKC (peptide 50 μM, MBP substrate), the “inhibition of PKC activity” value was “more than 75%”. For the same molecule, the “nature of kinetics with respect to substrate concentration” value with PKC (peptide 50 μM) was “uncompetitive”.

B1: Lys^92/His^93: hBVR with Lys^92His^93→Ala-Ala within the oxidoreductase motif (protein, UniProt P53004 3-296, looked up, variant K92A H93A)
Biliverdin reductase A: AEPERKFGVVVVGVGRAGSVRMRDLRNPHPSSAFLNLIGFVSRRELGSIDGVQQISLEDALSSQEVEVAYICSESSSHEDYIRQFLNAGAAVLVEYPMTLSLAAAQELWELAEQKGKVLHEEHVELLMEEFAFLKKEVVGKDLLKGSLLFTAGPLEEERFGFPAFSGISRLTWLVSLFGELSLVSATLEERKEDQYMKMTVCLETEKKSPLSWIEEKGPGLKRNRYLSFHFKSGSLENVPNVGVNKNIFLKDQNIFVQKLLGQFSEKELAAEKKRILHCLGLAEEIQKYCCSRK
B1: in data set [1], the “Activity (nmol bilirubin/min/mg) pH 6.7 + NADH” value is given as 0 nmol bilirubin/min/mg and the “Activity (nmol bilirubin/min/mg) pH 8.7 + NADPH” value is 0 nmol bilirubin/min/mg. For the same molecule, in data set [1] (pH 6.7 with NADH), the “reductase activity relative to the control (wild type)” value is on record as “loss of enzyme activity”. In data set [1] (pH 8.7 with NADPH), the “reductase activity relative to the control (wild type)” value was “loss of enzyme activity”.

B2: Cys^74: hBVR with Cys^74→Ala within a substrate binding domain (protein, UniProt P53004 3-296, looked up, variant C74A)
Biliverdin reductase A: AEPERKFGVVVVGVGRAGSVRMRDLRNPHPSSAFLNLIGFVSRRELGSIDGVQQISLEDALSSQEVEVAYIASESSSHEDYIRQFLNAGKHVLVEYPMTLSLAAAQELWELAEQKGKVLHEEHVELLMEEFAFLKKEVVGKDLLKGSLLFTAGPLEEERFGFPAFSGISRLTWLVSLFGELSLVSATLEERKEDQYMKMTVCLETEKKSPLSWIEEKGPGLKRNRYLSFHFKSGSLENVPNVGVNKNIFLKDQNIFVQKLLGQFSEKELAAEKKRILHCLGLAEEIQKYCCSRK
Turning to B2, in data set [1], the “Activity % pH 6.7 + NADH” value was 44% and the “Activity % pH 8.7 + NADPH” value was determined as 45%.

B3: Cys^74,204^,^281,292,293: hBVR construct with all 5 Cys residues combined changed to Ala (protein, UniProt P53004 3-296, looked up, variant C74A C204A C281A C292A C293A)
Biliverdin reductase A: AEPERKFGVVVVGVGRAGSVRMRDLRNPHPSSAFLNLIGFVSRRELGSIDGVQQISLEDALSSQEVEVAYIASESSSHEDYIRQFLNAGKHVLVEYPMTLSLAAAQELWELAEQKGKVLHEEHVELLMEEFAFLKKEVVGKDLLKGSLLFTAGPLEEERFGFPAFSGISRLTWLVSLFGELSLVSATLEERKEDQYMKMTVALETEKKSPLSWIEEKGPGLKRNRYLSFHFKSGSLENVPNVGVNKNIFLKDQNIFVQKLLGQFSEKELAAEKKRILHALGLAEEIQKYAASRK
With B3, in data set [1], the “Activity % pH 6.7 + NADH” value is recorded as 1% and the “Activity % pH 8.7 + NADPH” value is given as 10%.

B4: Cys^281: hBVR with Cys^281→Ala within the zinc finger domain (protein, UniProt P53004 3-296, looked up, variant C281A)
Biliverdin reductase A: AEPERKFGVVVVGVGRAGSVRMRDLRNPHPSSAFLNLIGFVSRRELGSIDGVQQISLEDALSSQEVEVAYICSESSSHEDYIRQFLNAGKHVLVEYPMTLSLAAAQELWELAEQKGKVLHEEHVELLMEEFAFLKKEVVGKDLLKGSLLFTAGPLEEERFGFPAFSGISRLTWLVSLFGELSLVSATLEERKEDQYMKMTVCLETEKKSPLSWIEEKGPGLKRNRYLSFHFKSGSLENVPNVGVNKNIFLKDQNIFVQKLLGQFSEKELAAEKKRILHALGLAEEIQKYCCSRK
Take B4: in data set [1], the “Activity % pH 6.7 + NADH” value was 31% and the “Activity % pH 8.7 + NADPH” value was 23%.

B5: Cys^292^,^293: hBVR construct with Cys^292+Cys^293→Ala mutations (protein, UniProt P53004 3-296, looked up, variant C292A C293A)
Biliverdin reductase A: AEPERKFGVVVVGVGRAGSVRMRDLRNPHPSSAFLNLIGFVSRRELGSIDGVQQISLEDALSSQEVEVAYICSESSSHEDYIRQFLNAGKHVLVEYPMTLSLAAAQELWELAEQKGKVLHEEHVELLMEEFAFLKKEVVGKDLLKGSLLFTAGPLEEERFGFPAFSGISRLTWLVSLFGELSLVSATLEERKEDQYMKMTVCLETEKKSPLSWIEEKGPGLKRNRYLSFHFKSGSLENVPNVGVNKNIFLKDQNIFVQKLLGQFSEKELAAEKKRILHCLGLAEEIQKYAASRK
As for B5, in data set [1], the “Activity % pH 6.7 + NADH” value is 94% and the “Activity % pH 8.7 + NADPH” value was 100%.

B6: BVR peptide K274KRIMHC280 (peptide 1) (peptide)
peptide: KKRIMHC
Turning to B6, in data set [2], the Km of the PKC reaction for the substrate MBP, peptide 50 µM (control 0.165 mg/ml) was determined as 0.39 mg/mL; the Vmax of the PKC reaction with respect to the cofactor ATP, peptide 50 µM (control 3.81 pmol/min) stood at 4.2 pmol/min; the Vmax of the PKC reaction with respect to the substrate MBP, peptide 50 µM (control 2.25 pmol/min) stood at 2.92 pmol/min.

B7: Ser^44: hBVR SEQ. ID. No. 1 with Ser^44→Ala within one of the kinase motifs (protein, listed as Homo sapiens)
chain: MNAEPERKFGVVVVGVGRAGSVRMRDLRNPHPSSAFLNLIGFVARRELGSIDGVQQISLEDALSSQEVEVAYICSESSSHEDYIRQFLNAGKHVLVEYPMTLSLAAAQELWELAEQKGKVLHEEHVELLMEEFAFLKKEVVGKDLLKGSLLFTSDPLEEDRFGFPAFSGISRLTWLVSLFGELSLVSATLEERKEDQYMKMTVCLETEKKSPLSWIEEKGPGLKRNRYLSFHFKSGSLENVPNVGVNKNIFLKDQNIFVQKLLGQFSEKELAAEKKRILHCLGLAEEIQKYCCSRK
As for B7, the enzyme activity entry in data set [3] is given as “did not display loss of enzyme activity”. In addition, in data set [1], the “Activity (nmol bilirubin/min/mg) pH 6.7 + NADH” value is 7443 nmol bilirubin/min/mg and the “Activity (nmol bilirubin/min/mg) pH 8.7 + NADPH” value turned out to be 333 nmol bilirubin/min/mg. Also, the “increase in activity at pH 6.7 with NADH” value in data set [1] (pH 6.7, NADH, versus wild type) was 2.5 fold. The “reduction in NADPH-dependent activity” value in data set [1] (pH 8.7, NADPH, versus wild type) is given as 70-75%.

The record behind these values is US20050287132A1, “Biliverdin reductase fragments and variants, and methods of using biliverdin reductase and such fragments and variants” (University of Rochester, priority 1999, published 2005).
